{"source": "the DeepSol protein solubility set", "data": [{"assay": "soluble on expression in E. coli; label from the status in PepcDB or PDB records", "values": [{"sequence": "MLLRKGTVYVLVIRADLVNAMVAHARRDHPDEACGVLAGPEGSDRPERHIPMTNAERSPTFYRLDSGEQLKVWRAMEDADEVPVVIYHSHTATEAYPSRTDVKLATEPDAHYVLVSTRDPHRHELRSYRIVDGAVTEEPVNVVEQYLEHHHHHH", "soluble on expression in E. coli": "not soluble"}, {"sequence": "MLMATMTPWYLYLIRTADNALYTGITTDVARRYRQHQTGKGAKALRGKGELTLAFAAQVGDRSLALRIEYRIKQLTKRQKERLVTEREAFEALLSSLQTPVLKND", "soluble on expression in E. coli": "not soluble"}, {"sequence": "MLNDGEVTPSRHEILSMVKKHSKSLGKTSLDEQDASDVEMDSNFWHGVFDVYFVRCMESRRRQDDDLLFFVRKLSCKSYGLTENEDAPAPYFVRRWAPKLDELLGESLAEVDWRKSFYLNMIAHTSFTVTVAICSNEALKTYQGSKDTKLSPIYKVVKTVYASPSRVNFHLDSKKEVETTPAYPEICFAVDDFDSTFDAVVLTDKDHCYCVLLNSHDGAAFPSATVKDSSDSNTNADPRTVKDPKVTLFSGFVSYQMVREAYEGGRNRFGSLLSLGHITGKADRLYMRGPGGRGEVEVAVSGVVDQSQVVLGPVSPMSSKKSIDLGSIFRKAASVASVAAKHAIAAATASYDEDEMFPLKCCLMSISLPWDTIAHDLLFKATPPVNME", "soluble on expression in E. coli": "soluble"}, {"sequence": "MLNFLSISSEPKIKSLAIGKFDGLHLGHQALFKELKDPKALLIIEKKHYTKGYLTPLKYRAKLVGMPLFFVYLEEISQLNALDFLDLLKKKFPHLERLVVGYDFRFGHERQNDALFLKERFEKTIIVPEVKVQEISVHSKMIKLALSHGDLSLANKLLGRPYEVCGEVISDQGLGHKELAPTLNIKTKDFILPSFGVYASLVKIKDPIYQKSVSFIGNRLSTDQNFAIECHVLDTIIENPPQEIALRWVQKIRDNMRFSSLKELKNQIQQDILRAKEILR", "soluble on expression in E. coli": "not soluble"}, {"sequence": "MLPNNQWQIPINNGLTHQENMAAHAAVMKLRVHDLQSIISQLSLRKPRPQKSEHQKVVVESLRDPHHARQIYQMVISLIFSSLQASNFPNGNYEMQKRPATTSQVRSHPYVLPSRSGASNHLVNHHYQQQQQQQPQPHNLLHQQMMASHHSHLQQQHHPSTVRWLTPELLEEQLRGSMRYGAPAAAAATNAPLHSSFPNHGRSSQQSLQKSEKSNRPKKMYADNFEPLPLPFYDVISVLLKPVELHSSDSPTLKQTKQLQFPFLLTAEHISKISYRADVTPLPRYELQLRFFNLTEPVQGPQKDDFPLNCYARVDDSVVQLPNVIPTNKTNAEPKRPSRPVNITSNMNRYKKEHTVAVEWLADKRVWAAGVYFVHRVNSDILFKRLNQNVSRHRSLEVTKQEVIKKLSGGEDDIAMDRLNISLLDPLCKTRMTTPSRCQDCTHLQCFDLLSYLMMNEKKPTWQCPVCSSNCPYDRLIVDDYFLDMLAKVDKNTTEVELKEDGSYDVIKEEAFCISDDDDDDVVPATVNGTASCSSTNGNGLANEAAKKKPADDDIITLSDDDDEELNRGIMNSLNDSFSPGRHTASAELAAQKTPPQQKKKTKDDDIEIITLDDTPPRPVAASANLPMRQMSQQNQMPVGSSPSGMASTQMGMNEGASKTIRDALNKIGEQSANSSTQSSPLVQLHHTTHPLNFAQSSYMNPSSGSQTPTSQYGYSPMINQAPHFQMQNGLIGRNNQMVHMQQHHLQQQQQQQQSPQIMSPSFYAQQQMSNGGAFAYYPPQYPQQQYRQN", "soluble on expression in E. coli": "not soluble"}, {"sequence": "MLRFTNCSCKTFVKSSYKLNIRRMNSSFRTETDAFGEIHVPADKYWGAQTQRSFQNFKIGGARERMPLPLVHAFGVLKKSAAIVNESLGGLDPKISKAIQQAADEVASGKLDDHFPLVVFQTGSGTQSNMNANEVISNRAIEILGGKIGSKQVHPNNHCNQSQSSNDTFPTVMHIAASLQIQNELIPELTNLKNALEAKSKEFDHIVKIGRTHLQDATPLTLGQEFSGYVQQVENGIQRVAHSLKTLSFLAQGGTAVGTGLNTKPGFDVKIAEQISKETGLKFQTAPNRFEALAAHDAIVECSGALNTLACSLFKIAQDIRYLGSGPRCGYHELMLPENEPGSSIMPGKVNPTQNEALTQVCVQVMGNNAAITFAGSQGQFELNVFKPVMIANLLNSIRLITDAAYSFRVHCVEGIKANEPRIHELLTKSLMLVTALNPKIGYDAASKVAKNAHKKGITLKESALELGVLTEKEFDEWVVPEHMLGPK", "soluble on expression in E. coli": "soluble"}, {"sequence": "MLRKLSKFSNKGEVFMGLLEGKRALITGVANERSIAYGIAKSFHREGAQLAFTYATPKLEKRVREIAKGFGSDLVVKCDVSLDEDIKNLKKFLEENWGSLDIIVHSIAYAPKEEFKGGVIDTSREGFKIAMDISVYSLIALTRELLPLMEGRNGAIVTLSYYGAEKVVPHYNVMGIAKAALESTVRYLAYDIAKHGHRINAISAGPVKTLAAYSITGFHLLMEHTTKVNPFGKPITIEDVGDTAVFLCSDWARAITGEVVHVDNGYHIMGVFGREEEIKKEVYGD", "soluble on expression in E. coli": "soluble"}, {"sequence": "MLRLDTRFLPGFPEALSRHGPLLEEARRRLLAKRGEPGSMLGWMDLPEDTETLREVRRYREANPWVEDFVLIGIGGSALGPKALEAAFNESGVRFHYLDHVEPEPILRLLRTLDPRKTLVNAVSKSGSTAETLAGLAVFLKWLKAHLGEDWRRHLVVTTDPKEGPLRAFAEREGLKAFAIPKEVGGRFSALSPVGLLPLAFAGADLDALLMGARKANETALAPLEESLPLKTALLLHLHRHLPVHVFMVYSERLSHLPSWFVQLHDESLGKVDRQGQRVGTTAVPALGPKDQHAQVQLFREGPLDKLLALVIPEAPLEDVEIPEVEGLEAASYLFGKTLFQLLKAEAEATYEALAEAGQRVYALFLPEVSPYAVGWLMQHLMWQTAFLGELWEVNAFDQPGVELGKVLTRKRLAG", "soluble on expression in E. coli": "soluble"}, {"sequence": "MLRLLLRHHFHCLLLCAVWATPCLASPWSTLTANQNPSPPWSKLTYSKPHDAATFYCPFLYPSPPRSPLQFSGFQQVSTGPECRNETLYLLYNREGQTLVERSSTWVKKVIWYLSGRNQTILQRMPQTASKPSDGNVQISVEDAKIFGAHMVPKQTKLLRFVVNDGTRYQMCVMKLESWAHVFRDYSVSFQVRLTFTEANNQTYTFCTHPNLIVLEHHHHHH", "soluble on expression in E. coli": "not soluble"}, {"sequence": "MLRLSAPGQLDDDLCLLGDVQVPVFLLRLGEASWALVEGGISRDAELVWADLCRWVADPSQVHYWLITHKHYDHCGLLPYLCPRLPNVQVLASERTCQAWKSESAVRVVERLNRQLLRAEQRLPEACAWDALPVRAVADGEWLELGPRHRLQVIEAHGHSDDHVVFYDVRRRRLFCGDALGEFDEAEGVWRPLVFDDMEAYLESLERLQRLPTLLQLIPGHGGLLRGRLAADGAESAYTECLRLCRRLLWRQSMGESLDELSEELHRAWGGQSVDFLPGELHLGSMRRMLEILSRQALPLD", "soluble on expression in E. coli": "not soluble"}, {"sequence": "MLRREFGPKYTAKINEAEENWQARAEAIKKGKKQNTWDLFEERGYVKDTAGTKEHIAELMRTRRIGAYVGIDPTAPSLHVGHLLPLMPLFWMYLEGYKAFTLIGGSTAKIGDPTGRLKSRDHLSSSDATMNMTKIHYQLKKLWENVDTQMRARGYEADWARKRGIVNNNHWWNKQPMLEVLRRVGHALRIGPMLSRDTVKNKMTQGDGVSFAEFTYPIMQGWDWFELFYQQGVQMQIGGSDQYGNIISGLEVVKAARESEPDPQERKYVTPKTALDECVGFTVPLLTDSSGAKFGKSAGNAIWLDPYQTSVFDFYGYFVRRSDQEVENLLKLFTFMPISEITKTMEEHIKDPSKRVAQHTLAREVVTLVHGKQEASAAEDQHRMMYTGQMTI", "soluble on expression in E. coli": "soluble"}, {"sequence": "MLRSLLKSRQVICGLRELRALSTSQGNESIIDFVDTVTETSEAQNQSFASLLRNSKFMQLGDFNGRLVVGKIAQRVQEDVYIDFGLKFNAVCKVPALNSEAYRSGARVLIRLIDPELSERFLGSKHDLTLLEADAVLVRLLSNVPRQQQQRQKPRGATEEEAPAAPETPAAH", "soluble on expression in E. coli": "not soluble"}, {"sequence": "MLRSLSTISKSTVRCMSLTSKMAAEQPSKQEVDDLFAEKPQHHNPEQRRHAYSVNKVELVGGVALDPLYKTGRNGKPYLIFNIITNSYFKQQDGTTLDQTERHAVSVFGKQAEILSKTIKKGSRLMVQGRLHYSGGQKDEQGNRTQRNTYIIAQTVQPLARAARENPDQH", "soluble on expression in E. coli": "not soluble"}]}]}
